Experimental data from publication PMC4242682, “The Cpn10(1) Co-Chaperonin of A. thaliana Functions Only as a Hetero-Oligomer with Cpn20” (PLoS ONE, 2014).
Values belong to the binder of their own block, whether it stands above or below them.

B4: Cpn20 co-chaperonin of A. thaliana (natural protein, UniProt O65282 51-253, looked up)
chain: AASVVAPKYTSIKPLGDRVLVKIKEAEEKTLGGILLPSTAQSKPQGGEVVAVGEGRTIGKNKIDITVPTGAQIIYSKYAGTEVEFNDVKHLILKEDDIVGILETEDIKDLKPLNDRVFIKVAEAEEKTAGGLLLTETTKEKPSIGTVIAVGPGSLDEEGKITPLPVSTGSTVLYSKYAGNDFKGKDGSNYIALRASDVMAILS
notes: Cpn20, A. thaliana chloroplast co-chaperonin of two Cpn10-like domains joined head-to-tail, At5g20720

Experiments:
[1] = biological target: the molecule itself; experiment: cross-linking; 45 µM co-chaperonin with 1 mM DSS at room temperature, 50 mM Na-HEPES pH 7.5, 10 mM MgCl2, 100 mM KCl; time course; SDS gradient gel, Coomassie
[2] = biological target: B4; experiment: cell-based or functional assay
Cpn20 mutant G32A = biological target: T1, Cpn20 mutant G32A (A. thaliana, UniProt O65282 51-253, G32A); experiment: cell-based or functional assay
T1 sequence (looked up): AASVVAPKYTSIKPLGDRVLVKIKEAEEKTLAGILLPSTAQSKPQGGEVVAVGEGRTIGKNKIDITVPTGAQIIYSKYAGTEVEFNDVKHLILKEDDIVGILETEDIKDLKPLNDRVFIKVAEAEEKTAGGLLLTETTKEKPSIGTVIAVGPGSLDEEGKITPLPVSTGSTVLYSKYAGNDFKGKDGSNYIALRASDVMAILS

[3] = biological target: the molecule itself; experiment: native gel or EMSA; co-chaperonins at 100 µM (protomer) mixed at various ratios, 5 min at room temperature, 6% native acrylamide gel; no Cpn60 or ATP
Cpn60β3 = biological target: T2, Cpn60β3 (A. thaliana, UniProt P21240 55-600); experiment: SEC; reconstitution of 150 µM Cpn60α2 and 100 µM Cpn60β3 with 50 µM mt-cpn10, 5 mM ATP, 50 mM Tris-HCl pH 8, 300 mM NaCl, 10 mM MgCl2, 16 mM KCl, 2 mM DTT, 1 h 30°C; oligomers separated from monomers on Superdex 200 at room temperature; details: both partners purified
T2 construct: Cpn60β3, A. thaliana chloroplast chaperonin β subunit, At1g55490
T2 sequence (P21240 55-600): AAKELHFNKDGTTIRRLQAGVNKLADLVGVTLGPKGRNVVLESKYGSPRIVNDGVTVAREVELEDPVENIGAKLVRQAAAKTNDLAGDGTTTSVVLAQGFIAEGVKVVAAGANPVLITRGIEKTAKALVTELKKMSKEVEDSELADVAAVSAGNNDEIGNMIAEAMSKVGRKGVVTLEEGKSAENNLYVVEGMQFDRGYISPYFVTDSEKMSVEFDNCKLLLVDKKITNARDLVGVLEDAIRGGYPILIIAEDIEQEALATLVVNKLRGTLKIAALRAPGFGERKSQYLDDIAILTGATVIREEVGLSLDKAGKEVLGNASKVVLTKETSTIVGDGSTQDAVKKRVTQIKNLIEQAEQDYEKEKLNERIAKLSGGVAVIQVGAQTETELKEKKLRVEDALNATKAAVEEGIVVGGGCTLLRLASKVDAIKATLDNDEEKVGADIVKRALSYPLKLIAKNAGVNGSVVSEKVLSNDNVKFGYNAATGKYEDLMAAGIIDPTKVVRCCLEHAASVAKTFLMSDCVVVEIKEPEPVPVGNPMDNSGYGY

B1: Cpn10(1) co-chaperonin of A. thaliana, lacking the N-terminal chloroplast transit peptide (natural protein, UniProt Q9M1C2 43-138, looked up)
chain: STKWEPAKVVPQADRVLVRLEVLPEKSSGGVLLPKSAVKFERYLTGEVVSVGSEVGEVEPGKKVLFSDMSAYEVDFGTEDAKHCFCKESDLLAIVQ
notes: Cpn10(1), A. thaliana chloroplast co-chaperonin, At3g60210, without the transit peptide; Serine 43 chosen as the first amino acid; Cloned between XhoI and NdeI of pET22b+; source: E. coli BL21(T7+), pET22b+, purified (Mono-Q, Superdex 200, Superdex 75)
stoichiometry N [1]: 2 | refolding of urea-denatured MDH by 10 µM Cpn60αβ, Cpn20 titrated (0.625–20 µM) with constant 20 µM Cpn10(1); against 51.39% with Cpn20 alone (% of Cpn60αβ with mt-cpn10) [2]: 77.8% | refolding of urea-denatured MDH by GroEL with the combination of G32A and Cpn10(1), each inactive alone (% of GroEL with saturating GroES) (Cpn20 mutant G32A): ~75% | refolding of urea-denatured MDH by chloroplast Cpn60αβ with the combination of G32A and Cpn10(1), each inactive alone (% of Cpn60αβ with mt-cpn10) (Cpn20 mutant G32A): ~40%

B2: GroES (natural protein, E. coli, UniProt P0A6F9 1-97, looked up)
chain: MNIRPLHDRVIVKRKEVETKSAGGIVLTGSAAAKSTRGEVLAVGNGRILENGEVKPLDVKVGDIVIFNDGYGVKSEKIDNEEVLIMSESDILAIVEA
notes: GroES, the co-chaperonin (Cpn10) of E. coli
stoichiometry N [1]: 7

Binder: B4
binding result [3]: binds

More lines, main results first:

refolding of urea-denatured MDH by Cpn60αβ, Cpn10(2) titrated on a background of 20 µM G32A; at a 0.25 ratio of [co-chaperonin]/[Cpn60αβ], against 18.06% with Cpn10(2) alone (Cpn20 mutant G32A): 29.1%
B3: Cpn10(2) co-chaperonin of A. thaliana (natural protein, UniProt O80504 40-139, looked up)
chain: IKAISTKWEPTKVVPQADRVLVRLEDLPIKSSGGVLLPKAAVKFERYLTGEIISVGSEVGQQVGPGKRVLFSDVSAYEVDLGTDARHCFCKESDLLALVE
notes: Cpn10(2), A. thaliana chloroplast co-chaperonin, At2g44650
stoichiometry N [1]: 7

binding result (Cpn60β3): binds
B5: Cpn60α2 (natural protein)
chain: not shown
notes: additional glycine-serine at the N-terminus; Cpn60α2, A. thaliana chloroplast chaperonin α subunit, At2g28000; alanine 46 chosen as the first amino acid of the mature protein; The vector codes for an octa-histidine tag followed by a TEV site
